Results taken from the supplement of paper PMC10567573.

B1: RHOBTB2 (parent)
chain: LYTGELDENERDLMHIAHIAELLE

Variants of: B1
Assay: protein stability index of a GFP-peptide fusion (GPS, HEK-293T) (PSI 1-6); higher = more stable
Conditions: c terminus: a fixed tail appended
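Also: lentivirally expressed fusions sorted by FACS into six bins by GFP to DsRed ratio, PSI derived from sequencing read proportions per bin multiplied by bin number.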

Protein stability index: each site, then its substitutions
L6: D 3.27; E 3.4; F 2.46; G 3.11; H 2.96; I 2.64; K 3.31; M 2.56; N 3.49; P 2.95; Q 3.86; R 2.79; S 2.81; T 3.57; V 2.38; W 2.44; Y 2.6
D7: A 2.48; C 1.88; E 2.41; F 2.3; G 2.15; H 1.62; I 1.77; K 2.33; L 3.31; M 1.97; N 2.17; P 2.52; Q 1.94; R 2.25; S 2.48; T 2.16; V 2.46; W 1.64; Y 1.89
E8: A 2.08; C 2.05; D 3.23; F 1.96; G 1.91; H 2.39; I 1.62; K 2.28; L 1.57; M 1.78; N 2.21; P 2.15; Q 2.85; R 2.46; S 2.29; T 2.4; V 2.9; W 2.88; Y 2.23
N9: A 2.57; C 1.85; D 2.59; E 3.15; F 1.34; G 2.82; H 2.54; I 3.37; K 2.68; L 1.51; M 1.86; P 2.03; Q 2.25; R 2.79; S 2.19; T 2.71; V 1.89; Y 1.64
E10: A 2.58; C 2.6; D 2.87; F 2.53; G 2.02; H 2.05; I 2.26; K 1.94; L 2.24; M 1.68; N 2.83; P 1.88; Q 2.61; R 2.58; S 1.98; T 2.66; V 1.89; W 2.41; Y 1.95
R11: A 2.27; C 2.66; D 2.9; E 2.44; F 1.83; G 3.32; H 2.39; I 2.57; K 2.77; L 1.77; M 1.96; N 2.1; P 2.67; Q 1.96; S 2.5; T 2.14; V 2.04; W 2.04; Y 2.42
D12: A 2.01; C 2.53; E 2.47; F 2.78; G 2.74; H 3.13; I 3.03; K 3.02; L 3.07; M 2.95; N 3.12; P 2.43; Q 2.4; S 2.56; T 2.43; V 2.96; W 2.49; Y 1.66
L13: A 3.08; C 3.45; D 3.12; E 3.44; F 3.13; G 3.74; H 3.58; I 2.38; K 3.1; M 2.92; N 3.28; P 4.82; Q 3.29; R 3.06; S 3.12; T 3.34; V 3.22; W 2.65; Y 2.59
M14: A 2.39; C 2.45; D 3.41; F 2.54; G 3.36; H 3.1; I 2.84; K 2.89; L 2.58; N 3.52; P 3.48; Q 2.39; R 2.36; S 3.8; T 3.04; V 2.16; W 1.82; Y 2.01
H15: A 1.74; C 2.13; D 3.36; E 2.76; F 2.46; G 2.78; I 1.93; K 2.21; L 1.5; M 1.86; N 2.63; P 3.23; Q 2.4; R 2.42; S 2.54; T 1.53; V 1.62; W 2.47; Y 1.67
I16: A 4.07; C 3.77; D 4.12; E 4.85; F 2.71; G 4.06; H 3.76; K 4.05; L 2.09; M 2.51; N 3.54; P 4.15; Q 3.87; R 4.43; S 3.9; T 3.62; V 2.76; W 3.16; Y 2.93
A17: C 1.77; D 3.28; E 2.17; F 2.38; G 2.77; H 3.58; I 2.1; K 2.72; L 1.45; M 1.41; N 2.92; P 3.85; Q 2.95; R 2.7; S 3.02; T 1.82; V 1.66; W 1.87; Y 1.93
H18: A 1.65; C 2.41; D 2.87; E 3.32; F 1.72; G 3.76; I 2.65; K 3.54; L 1.23; M 2.71; N 3.47; P 2.88; Q 1.82; R 2.38; S 3.03; T 1.95; V 2.05; W 2.11; Y 1.59
I19: A 3.38; C 3.3; D 4.85; E 4.85; F 2.67; G 4.45; H 3.62; K 4.3; L 2.31; M 2.52; N 4.47; P 4.81; Q 3.37; R 4.17; S 3.26; T 3.79; V 3.1; W 2.28; Y 3.56
A20: C 1.31; D 3.34; E 3.85; F 1.97; G 3.3; H 3.54; I 2.14; K 2.99; L 1.61; M 2.01; N 3.74; P 3.79; Q 3.72; R 3.22; S 3.08; T 2.76; V 1.93; W 2.37; Y 2.53
E21: A 1.72; C 2.37; D 2.77; F 1.74; G 1.92; H 1.8; I 1.77; K 2.07; L 1.92; M 2.12; N 2.48; P 3.3; Q 2.32; R 1.85; S 1.7; T 1.75; V 1.04; W 2.1; Y 1.76
L22: A 2.96; C 2.79; D 4.26; E 4.08; F 3.41; G 3.6; H 3.76; I 2.56; K 3.67; M 2.18; N 3.5; P 4.75; Q 3.74; R 3.62; S 3.66; T 3; V 2.72; W 2.52; Y 3.03
L23: A 4.33; C 3.58; D 4.28; E 5.05; F 2.41; G 4.05; H 3.97; I 2.66; K 3.93; M 3.3; N 4.01; P 4.28; Q 4.41; R 4.05; S 4.25; T 3.99
